For the assay, the target named is T1, S. aureus FtsZ, full length (Staphylococcus aureus, UniProt P0A031 1-390, FITC label, ~0.7 FITC per FtsZ).
T1 sequence: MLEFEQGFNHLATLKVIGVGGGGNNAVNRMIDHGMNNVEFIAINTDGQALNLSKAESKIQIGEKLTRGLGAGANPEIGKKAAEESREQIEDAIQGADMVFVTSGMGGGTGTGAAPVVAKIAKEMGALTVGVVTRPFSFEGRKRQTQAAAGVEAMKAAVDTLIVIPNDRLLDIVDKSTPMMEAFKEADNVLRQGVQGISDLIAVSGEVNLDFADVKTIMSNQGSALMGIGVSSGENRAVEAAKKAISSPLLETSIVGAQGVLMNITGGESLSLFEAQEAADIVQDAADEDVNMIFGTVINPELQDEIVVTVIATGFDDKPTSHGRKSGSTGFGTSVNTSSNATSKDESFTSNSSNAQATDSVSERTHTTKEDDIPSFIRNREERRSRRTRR
In words: other fluorescence titration.

B1: S. aureus GpsB (natural protein)
chain: MSDVSLKLSAKDIYEKDFEKTMARGYRREEVDAFLDDIIADYQKMADMNNEVVKLSEENHKLKKELEELRLRVATSRPQDNKSFSSNNTTTNTSSNNVDILKRISNLEKAVFGK
B1: the Kd (usually a measure of binding affinity in units of concentration) came out at 53.8 ± 8 µM.

Values taken from article PMC11742113 (Molecular Biology of the Cell, 2025).
